This is an account of results in US20240016901A1, “COMPOSITIONS AND METHODS FOR PREVENTING AND TREATING SARS-COV-2 INFECTION” (priority 2020, published 2024).

The test system of experiment [1] is SARS-CoV-2. Kind of experiment: microbe, parasite or virus in culture. It is filed as cell-based. As to conditions: Huh-7 cells; for anti-SARS-CoV-2 activity, percentage of infected Huh-7 cells: protein at 2.3 μM, FIG. 6E.
The subject of experiment [2] is SARS-CoV-2. The class given is cell-based, SARS-CoV-2 WA1. The following applies: iAECs, pretreatment 1.15 μM, MOI 10.
Experiment [3] concerns SARS-CoV-2. It is filed as cell-based, SARS-CoV-2 WA1. The following applies: Huh-7 cells, MOI 0.2, 48 hrs p.i., FIG. 6C.
In experiment [4] the test system is IFNβ, ISG15, MX1, Viperin and IFITM3. The experiment can be described thus: qPCR of IFNβ and interferon-stimulated gene mRNA in Huh-7 cells. As to conditions: lactoferrin-treated Huh-7 cells, FIG. 6D. The class given is cell-based, human.

The EC50 is the concentration giving half of the maximal effect. A lower EC50 goes with an effect from little substance. One may read the IC50 as the point on the concentration scale where inhibition reaches its midpoint.

B1: Lacto ferrin: a protein found in milk and other secretory fluids; diet supplement (protein, UniProt P24627 20-708, looked up)
Lactotransferrin: APRKNVRWCTISQPEWFKCRRWQWRMKKLGAPSITCVRRAFALECIRAIAEKKADAVTLDGGMVFEAGRDPYKLRPVAAEIYGTKESPQTHYYAVAVVKKGSNFQLDQLQGRKSCHTGLGRSAGWIIPMGILRPYLSWTESLEPLQGAVAKFFSASCVPCIDRQAYPNLCQLCKGEGENQCACSSREPYFGYSGAFKCLQDGAGDVAFVKETTVFENLPEKADRDQYELLCLNNSRAPVDAFKECHLAQVPSHAVVARSVDGKEDLIWKLLSKAQEKFGKNKSRSFQLFGSPPGQRDLLFKDSALGFLRIPSKVDSALYLGSRYLTTLKNLRETAEEVKARYTRVVWCAVGPEEQKKCQQWSQQSGQNVTCATASTTDDCIVLVLKGEADALNLDGGYIYTAGKCGLVPVLAENRKSSKHSSLDCVLRPTEGYLAVAVVKKANEGLTWNSLKDKKSCHTAVDRTAGWNIPMGLIVNQTGSCAFDEFFSQSCAPGADPKSRLCALCAGDDQGLDKCVPNSKEKYYGYTGAFRCLAEDVGDVAFVKNDTVWENTNGESTADWAKNLNREDFRLLCLDGTRKPVTEAQSCHLAVAPNHAVVSRSDRAAHVKQVLLHQQALFGKNGKNCPDKFCLFKSETKNLLFNDNTECLAKLGGRPTYEEYLGTEYVTAIANLKKCSTSPLLEACAFLTR
Turning to B1, in the experiment with SARS-CoV-2 [1], the “antiviral activity against SARS-CoV-2 (in words)” value was “dose-dependent (3 nM-2.3 μM) and MOI-dependent (0.2-10) antiviral activity”. Besides, the “antiviral activity when added after infection” value in the experiment on SARS-CoV-2 [1] (2.3 μM added 1 or 24 hrs p.i., MOI 1, 5 and 10, FIG. 6B) is “retains antiviral activity”. For the same molecule, the EC50 in the experiment on SARS-CoV-2 [1] (MOI 0.2, 10-point two-fold dilution dose response in triplicate) worked out at 308 nM. In addition, the “potentiation of efficacy in combination with remdesivir” value with SARS-CoV-2 [1] (MOI 0.2, FIG. 6G, FIG. 7A) is reported as “potentiates the efficacy”. Also, in the experiment on SARS-CoV-2 [1] (MOI 10, FIG. 6H, FIG. 7B), the “potentiation of efficacy in combination with hydroxychloroquine” value is recorded as “potentiates the efficacy”. The IC50 in the experiment with SARS-CoV-2 [1] (read-out: IC50 against SARS-CoV-2 infection) is 308 nM. In the experiment on SARS-CoV-2 [2], the “reduction in the proportion of SARS-CoV-2 infected cells” value is “two-fold reduction”. Moreover, the “viral replication (viral genome copies)” value in the experiment on SARS-CoV-2 [3] was “dose-dependent reduction of viral replication”. Besides, the “mRNA levels of IFNβ and interferon-stimulated genes ISG15, MX1, Viperin and IFITM3” value in experiment [4] was “elevated”.

B2: apolactoferrin: apolactoferrin (Jarrow Formulas, 121011); component of dietary supplements (protein, UniProt P24627 20-708, looked up)
Lactotransferrin: B1 Lactotransferrin
modifications: iron-free apo form
notes: apolactoferrin (Jarrow Formulas, 121011); component of dietary supplements
On to B2, for which the “anti-SARS-CoV-2 activity, percentage of infected Huh-7 cells” value in the experiment on SARS-CoV-2 [1] is “robust antiviral effect”.

B3: Hololactoferrin: Hololactoferrin (Sigma Aldrich, L4765) (protein, UniProt P02788 20-710, looked up)
Lactotransferrin: GRRRSVQWCAVSQPEATKCFQWQRNMRKVRGPPVSCIKRDSPIQCIQAIAENRADAVTLDGGFIYEAGLAPYKLRPVAAEVYGTERQPRTHYYAVAVVKKGGSFQLNELQGLKSCHTGLRRTAGWNVPIGTLRPFLNWTGPPEPIEAAVARFFSASCVPGADKGQFPNLCRLCAGTGENKCAFSSQEPYFSYSGAFKCLRDGAGDVAFIRESTVFEDLSDEAERDEYELLCPDNTRKPVDKFKDCHLARVPSHAVVARSVNGKEDAIWNLLRQAQEKFGKDKSPKFQLFGSPSGQKDLLFKDSAIGFSRVPPRIDSGLYLGSGYFTAIQNLRKSEEEVAARRARVVWCAVGEQELRKCNQWSGLSEGSVTCSSASTTEDCIALVLKGEADAMSLDGGYVYTAGKCGLVPVLAENYKSQQSSDPDPNCVDRPVEGYLAVAVVRRSDTSLTWNSVKGKKSCHTAVDRTAGWNIPMGLLFNQTGSCKFDEYFSQSCAPGSDPRSNLCALCIGDEQGENKCVPNSNERYYGYTGAFRCLAENAGDVAFVKDVTVLQNTDGNNNEAWAKDLKLADFALLCLDGKRKPVTEARSCHLAMAPNHAVVSRMDKVERLKQVLLHQQAKFGRNGSDCPDKFCLFQSETKNLLFNDNTECLARLHGKTTYEKYLGPQYVAGITNLKKCSTSPLLEACEFLRK
modifications: iron-saturated holo form
On to B3, for which, in the experiment with SARS-CoV-2 [1], the “anti-SARS-CoV-2 activity, percentage of infected Huh-7 cells” value is “robust antiviral effect”.
